Data on 41 sequences can be found in the nanobody polyreactivity screen of Harvey et al. (2022).

A short description of this data set: yeast display, Sf9 membrane polyspecificity reagent, FACS + sequencing; frameworks hold sequencing errors. A digest of the protocol:
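A nanobody's polyreactivity label depends on the gate it was sorted from. Yeast display cells were stained with 10% biotinylated, detergent-solubilized Sf9 membrane reagent for 1 hour at 4 °C, enriched on streptavidin microbeads and sorted by FACS. The low and high (top ~1%) gates were set on anti-HA fluorescence for expression and streptavidin fluorescence for reagent binding.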
As for “QVQLVESGGGLVQAGGSLRLSCAASGSIFGRNAMGWYRQAPGKERELVARISSRGGSTYYADSVKGRFTISRDNAKNTVYLQLISLKREDTALYYCAAEGGDRYALYTFYTWGQGTQVTVSS”, the “polyreactivity (PSR sort gate)” value was “high polyreactivity”. For the sequence “QVQLVESGGGLVQAGGSLRISCAASGRTFHYYDMGWYRQAPGKERELVAAISSTAGSTYYADSVKGRFTISRDNAQNTVHLQMNSLKPEDTAVYYCAARQFGYYHVRNEYWGQGTQVTVSS”, the “polyreactivity (PSR sort gate)” value was “high polyreactivity”. As for “QVQHVESGGGLVQAGGSLRLSCAASGFIFRYYAMGWYRQAPGKERELVAAITWNGGSTYYADSVKGRFTISRDNAKNTVYLQLNSLKPEDTAVYYCADVPYTPSPYTYGYWGQGTQVSVSS”, the “polyreactivity (PSR sort gate)” value is “high polyreactivity”.

Consider “QVQLVESGGCLVQAGGSLRLSCAASGITFRYYPMGWYRQAPGKERELVATISTNGGTTYYADSVKGRFTISRDNAKNTVYLQMNSLKPEDTAVYYCNRKIYVSSARYPSEYGYWGQGTQVTVSS”, for which the “polyreactivity (PSR sort gate)” value was “high polyreactivity”.

Take “QVQLVESGGGLVQAGGSLRLSCAASGFIFLPYAMGWYRQAPGKERELVAAITRGGRTYYADSVKGRFTISRDNAKNTVYLQMNSLKPEDTAVYYCAATTYLVWGYNYWGQGTQVTVSS”: the “polyreactivity (PSR sort gate)” value is recorded as “low polyreactivity”.

On to “QVQLVESGGGLVQAGGSLRLSCAASGSIFYRNVMGWYRQAPGKERELVAAISWSGGSTYYADSVKGRFTISRDNAKNTVYLQMNSLKPEDTAVYYCAADIPKTGYPYAFEYWGQGTQVTVSS”, for which the “polyreactivity (PSR sort gate)” value is recorded as “low polyreactivity”.

With “QGQLVESGGGLVQAGGSLRLSCAASGRTFGYYAMRWYRQARGKERELVAVITRSGGTTYYADSVKGRFTISRDNAKNTVYLQMKSLKPEDTAVYYCHPAYYTGMYWGQGTQVTVSS”, the “polyreactivity (PSR sort gate)” value was “high polyreactivity”. Under “QVQLVESRGGLVQAGGSLRLSCAASGRIFAYYAKGWYRPAPGKERELVAAIRGSGGSTYYAESVKGRFTISRDNAKNTVYLQMNSLKPEDTAVYYCAARTQPKKFYYWGQGTQVTVSS” stands “high polyreactivity”.

Regarding “QVQLVESGGGLVQAGGSLRISCAASGLTFNAYAMGWYRQAPGKERELLADITTSDGSTFYADSVKGRFTISRDKATNTVYLQMNSLKPEDTAVYYCNADAYGWYSGPWFKWLLWYDYWGQGTQVTVSS”, the “polyreactivity (PSR sort gate)” value is recorded as “low polyreactivity”.

Regarding “QVQLEESGGGLVQAGGSLRLSFAASGFTFVRNTMGWDRQAPGKERELVAAISRSGGSTYYADSVKGRFTISRDKAKNTVYLQMNSLKPEDTAVYYCNAYRYVHYDWGQGTQVTVSS”, the “polyreactivity (PSR sort gate)” value is on record as “high polyreactivity”. With “QGQLVESGGGLVQAGGSLRLSSAASGSTFVGNAMGWYRQAPGKEREMVATISNSGGRTYYADSVKGRFTISRDNAKNTVYLQMTSLKPEDTAVYDCAADHPAFGPGYSFDYWGQGTQVTLSS” the entry was “low polyreactivity”; with “QVQLVESGGGLVQAGGSHRLSCAASGSTFEYNDMGGNRQEQGKERELVAAISSGGDTNYADSVKGRFTISRDNAKNTVFLQMNSLKPEDTAVYYCAADDWSPYLCYYGYAGYYYCGQGTQVTVSS”, “low polyreactivity”; with “QVQLVESGGGLVHAGGSLRLSCAASGFTFGQYAMGWYRQAPGKERELVAAIRSGGSTNYADSVKGRFTISRDNAKNTVYLQMNSLKPEDTAVYYCAAGYRRGWVTMGYWGQGTQVTVSS”, “high polyreactivity”. As to “QVQLVESGGGLVHAGGSLRLSCAASGRTFVYYAMGWNTQAPGKERELVAAISAGGGSTYYADSEKGRFTISRDNAKITVYFQMNSLNPEDTAVYYCAADGSPEIRDNYWGQGTQVTVSS”, the “polyreactivity (PSR sort gate)” value is “high polyreactivity”. With “QVQLVESGGGLVQAGGSLRLSCAASGTFYKYSMGWYRQAPGKERELVAAISWRGGRTYADSVKGRFTISRDNAKNTVYLQMNSLKPEDTAVYYCNKRFYPEHYYWGQGTQVTVSS” the entry was “high polyreactivity”. With “QVQLVVSGGGLVQAGGSLRLSWAASGIIFYEYAMGWYRQAPGTERELVAAITWSGRTYADSVKGRFTISRDNAKNTVYLQMNSLKPEDTAVYYCNAVYFGGPFFGQYNYWGQGTQVTVSS” the entry was “low polyreactivity”; with “QVQLVESGGGLVQAGGSLRLSCAASGGIFVSYAMGWYRQAPGKERELVARINAVDGTNYADSVKGRFTISRDNAKYTVYLQMKSVKPEDTAVYYCAVRSPVLASDYGYYFLRDYWGQGTQVTVSS”, “low polyreactivity”; with “QVQLVESGGGLVQAGGSLRLSCAASGSIFREYVMGWYRQAPGKEREFVAAISVSGGSTNYADSVKGRFTISRDNAKNTVYLQMNSLKPEDTAVYYCNADGVLTGYSRGGWYYWGQGTQVTVSS”, “low polyreactivity”.

For the sequence “QVHLVESGGGLVQAGGSLRLSCAASGLIIYRYAMGWYRQAPGKERELVAAITTNGARTYYADSVKGRFTISRDNAKNTVYLQMTSLIPEDTAVYYCAAYGAGKFWAEHNYWGLGTQVTVSS”, the “polyreactivity (PSR sort gate)” value is on record as “high polyreactivity”. With “QVQLVESGGGLVQAGGSLRLSCAASGSIFVYYAMGWYRQAPGKERELVAAISKTGGRTYYADSVKGRFTISRDNAKNTVYLQMNSLKPEDTAVYYCAARYTIRYKRYDYWGQGTQVTVSS” the entry was “high polyreactivity”. Under “QVQLVESGGGLVQAGGSLRLSCAASGSTFVPNDMGWYRQAPGKERELVAAISYSGGSTYYADSVKGRFTISRDNAKNTVYLQMNSLKPEDTAVYYCAAEKYLGELDYWGQGTQVTVSS” stands “low polyreactivity”. As for “QVQLVESGGGLVQAGGSLRLSCAASGSIFVTNPMGWYRQAPGKERELVAAIRGGGGSTYYADSVKGRFTISRDNAKNTVYLQMNSLKPEDTAVYYCNADRRGYLQSEMDYWGQGTQVTVSS”, the “polyreactivity (PSR sort gate)” value was “low polyreactivity”. Under “QVQLVESGGGLVQAGGSLRLSCAASGSIFKENAMGWYRQAPGKERELVAAITSSGGNTYYADSVKGRFTISRDHAKNTVYIQMNSLKPEDTAVYYCNAGVPVRSTTTDGYWGQGTQVNVSS” stands “high polyreactivity”. In the case of “QVQLVESGGGLVQAGGSLRLSCAASGRIFKSNAMGWYRQAPGKERELVASISRSGSTNYADSVKGRFTISRDNAKNTVYLQMNSLKPEDTAVYYCAKDPDAKGGGYDYWGQGTQVTVSS”, the “polyreactivity (PSR sort gate)” value is on record as “low polyreactivity”. Regarding “QVQLVESGGGLVQAGGILRLICAAYGRILAYNSMGWYRQAPGKQRELVAGISWSGGSTYYADSVKGRFTISRDNAKNTVYLQMNSLKPEDTAVYYCAKTPYYRYAKQRYTSSHDYWGQGTQVTVSS”, the “polyreactivity (PSR sort gate)” value was “high polyreactivity”.

As for “QVQLVESGGGLVQAGGSLRLSCAASGSTSGPYAMGWYRQAPGKETELVATISWIGDRTYYADSVKGRFTISRDNAKNTIYLQMNSLKPEDTAVYYCNADYRGYANLEGDYWGQGTQVTVSS”, the “polyreactivity (PSR sort gate)” value is on record as “low polyreactivity”. With “QVQLVESGGGLVQAGGSLRLSCAASGGTFVPNAMGWYRQAPGKERELVAAITWSGARTYYADSVKGRFTISRDNAKNTVYLQMNSLKPEDTAVYYCAAVYNYYIVYEYYYWGQGTQVTVSS” the entry was “high polyreactivity”; with “QVQLVESGGGLVQAGGSLRLSCAASGSTFYYNGMGWYRQAPGKERELVARITRTGGSTYYADSVKGRFTISRDNAKNTVYLQMNSLKPEDTAVYYCNADYYSRTKRKYRYGYWGQGTQVTVSS”, “high polyreactivity”. Under “QVQLVESGGGLVQAGGSLRLSCAASGRIFGGNTMGWYRQAPGKEREFVAAITQSGTRTYYADSVKGRFTISRDNAKNTVYLQRNSLKPEDTAVDYCAAEGYWYPYDYWRQGTQVTVSS” stands “high polyreactivity”.

In the case of “QVQLVESGGGLVQAGGSLRLSCAASGSIFPSNVMGSYRQAPGKERELVAAISNTGSTNYADSVKGRFTISRDNAKNTVYLQMNSLKPEDTAVYYCNADASYGFWSLLDYDYWGQGTQVTVSS”, the “polyreactivity (PSR sort gate)” value is given as “low polyreactivity”. With “QVQLVESGGGLVQAGGSLRLSCAASGFTFSLYAMGWYRQAPGKEREMVAAISRIGGRTYYADSVKGRFTISRDNAKNTVYLQMNSLKPEDTAVYYCAARQGYRSYRRYDYWGQGTQVTVSS” the entry was “high polyreactivity”; with “QVQLVESGGGLVQAGGSLRLSCAASGYIFRSNAMGWYRQAPGKERELVAAISGGGRTNYADSVKGRFTISRDNAKNTVYLQMNSLKPEDTAVYYCAAGGYYQRTRGYWGQATQVTVSS”, “high polyreactivity”.

For “QVQLVESGGGLVQAGGSLRLSCAASGFIFGEYTMGWYRQAPGKEREFVAAISWSGGSTSYADSVKGRFTISRDNAKNTVYLQMNSLKPEDTAVYYCAARYGSDYDYWGQGTQVTVSS”, the “polyreactivity (PSR sort gate)” value was “low polyreactivity”. Under “QVQLVESGGGLVQAGGSLRLSCSACGFIFPSYVMGWYRQAPGKERELVATISRSGGSTYYADSVKGRFTISRDNAKNTVYLQMNSLKPEDTAVYYCATRRRCRYSPYSPYDYWGQGTQVTVTS” stands “high polyreactivity”; under “QVQLVESGGGLVQAGGSLGLSCAASGFSFDRNAMGWYRQAPGKERGLVAAISSSGGRTYYPDSVKGRFTISRDYAKKTVYLQMNSLKPDDTAVYYCAAKLSRRYYYWGQGTQVTVSS”, “high polyreactivity”; under “QVQLVESVRGLVQAGGSLRVSCAASGRTFIVYAMGWYRQAPGKERELVAGITRGSTKYADSVKGRFTISRDNAKNTVYLQMNSLKPEDTAVYYCAGRSSRRGPISEGDYWGQGTQVTVSS”, “high polyreactivity”. Under “QVQLVESGGGLVQAGGSLRLSCAASGSTFPYNAMGWYRQAPGKERELVAANTFSGGSTYYADSVKGRFTISRDNAKNTVYLQMNSLKPEDTAVYYCNARYPWWGQRYDYWGQGTQVTVSS” stands “low polyreactivity”; under “QVQLVESGGGLVQAGGSLRLSWAASGSIFSIYAMGWYRQAPGKERDLVASITRSSGRTYYAYSVKGRFTISRDNAKNNVYLQMNSLKPEDTAVYYCAKDYIPLALDADDYCGQGTQVTVSS”, “low polyreactivity”; under “QVQLVESGGGLVQAGGSLRLSCAASGRIFRVNTMGWYRQSPGKERELVAAIRSSGTRTYYADSVKGRFTISRDNAKNTVYLQMNSLKPEDTAVYYCAATGRRGSGYYYWGQGTQVTVSS”, “high polyreactivity”. On to “QVQLVESGGGLVQAGGSLRLSCAASGSIFDYNAMGWYRQAPGKERELVAAITSTDSTYADSVKGRFTISRDNAKNTVYLQMNSLKPEDTAVYYCAAEDVIYYLTGQWREYDYWGQGTQVTVSS”, for which the “polyreactivity (PSR sort gate)” value was “low polyreactivity”. With “QVQLVESGGGLVQAGGSLRLSCAASGSTFIFYSMGWYRQAPGKERELVAAITSSGGSTYYADSVKGRFTISRDNANNTVYLQMNSLKPEDTAVYYCITLAYTYGSKFGYWGQGTQVTVSS” the entry was “low polyreactivity”.
